For one molecule, Kd results are on record in publication PMC10613257 (2023).

This experiment concerns the target insulin-like growth factor binding protein 5 (IGFBP5), full length, wild type (UniProt P24593 21-272, labelled with FAM-maleimide, 6-isomer after reduction with TCEP (in the fluorescence polarisation assay)). As to the kind of experiment: FP.

Chain of insulin-like growth factor binding protein 5 (IGFBP5), full length, wild type (P24593 21-272): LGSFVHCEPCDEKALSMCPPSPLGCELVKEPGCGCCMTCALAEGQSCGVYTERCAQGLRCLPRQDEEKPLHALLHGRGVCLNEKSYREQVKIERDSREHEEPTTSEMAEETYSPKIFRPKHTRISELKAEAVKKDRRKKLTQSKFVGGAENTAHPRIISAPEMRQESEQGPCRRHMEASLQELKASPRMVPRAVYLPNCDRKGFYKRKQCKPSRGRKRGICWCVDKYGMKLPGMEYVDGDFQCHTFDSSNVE

B1: PAPP-A E483A (catalytically inactive) (enzyme)
chain: REARGATEEPSPPSRALYFSGRGEQLRLRADLELPRDAFTLQVWLRAEGGQRSPAVITGLYDKCSYISRDRGWVVGIHTISDQDNKDPRYFFSLKTDRARQVTTINAHRSYLPGQWVYLAATYDGQFMKLYVNGAQVATSGEQVGGIFSPLTQKCKVLMLGGSALNHNYRGYIEHFSLWKVARTQREILSDMETHGAHTALPQLLLQENWDNVKHAWSPMKDGSSPKVEFSNAHGFLLDTSLEPPLCGQTLCDNTEVIASYNQLSSFRQPKVVRYRVVNLYEDDHKNPTVTREQVDFQHHQLAEAFKQYNISWELDVLEVSNSSLRRRLILANCDISKIGDENCDPECNHTLTGHDGGDCRHLRHPAFVKKQHNGVCDMDCNYERFNFDGGECCDPEITNVTQTCFDPDSPHRAYLDVNELKNILKLDGSTHLNIFFAKSSEEELAGVATWPWDKEALMHLGGIVLNPSFYGMPGHTHTMIHAIGHSLGLYHVFRGISEIQSCSDPCMETEPSFETGDLCNDTNPAPKHKSCGDPGPGNDTCGFHSFFNTPYNNFMSYADDDCTDSFTPNQVARMHCYLDLVYQGWQPSRKPAPVALAPQVLGHTTDSVTLEWFPPIDGHFFERELGSACHLCLEGRILVQYASNASSPMPCSPSGHWSPREAEGHPDVEQPCKSSVRTWSPNSAVNPHTVPPACPEPQGCYLELEFLYPLVPESLTIWVTFVSTDWDSSGAVNDIKLLAVSGKNISLGPQNVFCDVPLTIRLWDVGEEVYGIQIYTLDEHLEIDAAMLTSTADTPLCLQCKPLKYKVVRDPPLQMDVASILHLNRKFVDMDLNLGSVYQYWVITISGTEESEPSPAVTYIHGSGYCGDGIIQKDQGEQCDDMNKINGDGCSLFCRQEVSFNCIDEPSRCYFHDGDGVCEEFEQKTSIKDCGVYTPQGFLDQWASNASVSHQDQQCPGWVIIGQPAASQVCRTKVIDLSEGISQHAWYPCTISYPYSQLAQTTFWLRAYFSQPMVAAAVIVHLVTDGTYYGDQKQETISVQLLDTKDQSHDLGLHVLSCRNNPLIIPVVHDLSQPFYHSQAVRVSFSSPLVAISGVALRSFDNFDPVTLSSCQRGETYSPAEQSCVHFACEKTDCPELAVENASLNCSSSDRYHGAQCTVSCRTGYVLQIRRDDELIKSQTGPSVTVTCTEGKWNKQVACEPVDCSIPDHHQVYAASFSCPEGTTFGSQCSFQCRHPAQLKGNNSLLTCMEDGLWSFPEALCELMCLAPPPVPNADLQTARCRENKHKVGSFCKYKCKPGYHVPGSSRKSKKRAFKTQCTQDGSWQEGACVPVTCDPPPPKFHGLYQCTNGFQFNSECRIKCEDSDASQGLGSNVIHCRKDGTWNGSFHVCQEMQGQCSVPNELNSNLKLQCPDGYAIGSECATSCLDHNSESIILPMNVTVRDIPHWLNPTRVERVVCTAGLKWYPHPALIHCVKGCEPFMGDNYCDAINNRAFCNYDGGDCCTSTVKTKKVTPFPMSCDLQGDCACRDPQAQEHSRKDLRGYSHG
As for B1, the Kd (commonly the free concentration of one partner at which half of the binding sites on the other are occupied at equilibrium, for simple one-to-one binding) worked out at 237 nM.
